Assay results as given in publication PMC4834876.

Molecular target: Taxol-stabilised microtubules of porcine brain tubulin (porcine) (UniProt P02550)
Experiment: co-sedimentation

Chain of EB1 full-length (end-binding protein 1), wild type (Q15691 whole entry): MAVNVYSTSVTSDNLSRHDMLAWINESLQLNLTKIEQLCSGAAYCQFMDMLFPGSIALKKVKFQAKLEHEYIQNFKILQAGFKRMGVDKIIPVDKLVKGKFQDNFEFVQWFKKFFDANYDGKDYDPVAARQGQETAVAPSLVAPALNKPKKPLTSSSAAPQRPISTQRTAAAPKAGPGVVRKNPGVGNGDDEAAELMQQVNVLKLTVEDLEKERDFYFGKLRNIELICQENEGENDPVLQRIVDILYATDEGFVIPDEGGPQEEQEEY

Substance: EB1 full-length (end-binding protein 1), wild type (from UniProt Q15691 1-268) (natural protein)
- percent bound: 50%
